Measurements taken from the nanobody polyreactivity screen of Harvey et al. (2022).

assay: yeast display, Sf9 membrane polyspecificity reagent, FACS + sequencing; frameworks hold sequencing errors
Summary of the method: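 Genes from sorted yeast were amplified by colony PCR, read by MiSeq 2 × 250 sequencing and filtered on CDR length. These cells carried a synthetic nanobody library in Saccharomyces cerevisiae BJ5465 and were sorted by FACS into low and high (top ~1%) gates on anti-HA and streptavidin fluorescence. Polyreactivity is labelled according to the gate of origin.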

Sequence | polyreactivity (PSR sort gate)
QVQLVESRGGLVQAGGSLRLSCAASGFIFGVNAMGWYRQAPGKERELVAAITRNGGSTYYADSVKGRFTISRDYAKNSVYLQMNSLKPEDTAVYYCAKYVRRAPSTFDVDYWGQGTQVTVSS | high polyreactivity
QVQLVESRGGLVQAGGSLRLSCAASGFTFPFYAMGSYRQAPGKERELVAAISISGGSTHYADSVKGRFTISRDNAKNTVYLQMNSLKPEDTAVYYCAAEYGVVIYIDGWYPTLHEYYYSGQGTQVTVSS | high polyreactivity
QVQLVESRGGLVQAGGSLRLSCAASGFTFRYYAMGWYRQAPGKERELVARITRCASTSYADSVKGRFTISRDNAKNTVYLLMISLIPEDTAVYYCAADSPAGGYVFPELPYDYWGQGTQVTVSS | low polyreactivity
QVQLVESRGGLVQAGGSLRLSCAASGFTIDTYAMGWYRQAPGKERELVAGISWSGGSTYYADSVKGRFTISRDNAKNTVYLQMNSLKPEDTAVYYCNARDYSVGRYDYWGQGTQVTVSS | low polyreactivity
QVQLVESRGGLVQAGGSLRLSCAASGIIFFKYAMGWYRQAPGKERELVAAISIDGSTNYADSVKGRFTISRDNAKNTVYLQMNSLKPEDTAVYYCNAKRYGFFYWQGDYWGQGTQVTVSS | low polyreactivity
QVQLVESRGGLVQAGGSLRLSCAASGITFRTYSMGWYRQAPGKERELVAGIRTRTGSTYYADSVKGRFTISRDNAKNTVYLQMNSLKPEDTAVYYCAAKGSGYYGRQRIYSYTYDYWGQGTQVTVSS | high polyreactivity
QVQLVESRGGLVQAGGSLRLSCAASGITFTRNVMGWYRPAPGKERELVAGISRSGGRTYYADSVKGRFTISRENAKNTVYLQMNSLKPEDTAVYYCAADYSRRTRVDDDYDYWGQGTQVTVSS | high polyreactivity
QVQLVESRGGLVQAGGSLRLSCAASGLIFGFNTMGWYRQAPGKERELVAAITSGGGSTYYADSVKGRFTISRDNAKNTVYLQMNSLKPEDTAVYYCNAGGGRWRARQWHDYWGQGTQVTVSS | low polyreactivity
QVQLVESRGGLVQAGGSLRLSCAASGLIFRHYAMGWYRQAPGKERELVAAITGSGSTYYADSVKGRFTISRDNAKNTVYFQMNSLKPEDTAVDYCAATVYSSGAMDYWGQGTQVTVSS | low polyreactivity
QVQLVESRGGLVQAGGSLRLSCAASGRIFASYTMGWYRQAHGKERELVAAISWRGDGTYYADSVKGRFTISRDNAKNTVYLQMNSLKPEDTAVYYCAADYVYYYHEYDYWGQGTQVTVSS | low polyreactivity
QVQLVESRGGLVQAGGSLRLSCAASGRIFSWYSMGWYRQPPGTERELVAGISWIGGSTYYADSVKGRFTFSRDNAKNTVYLQMISLKPEDTAVYYCNAEYFGEYRDYGYWGQGTQVTVSS | low polyreactivity
QVQLVESRGGLVQAGGSLRLSCAASGRNFRFNAMGWYRQEPGKERELVAAISASGGITYYADSVKGRFTISRDNAKNTVYLQMNSLKPEDSAVYYCAADLYATWSYFFTWLDNWGQGTQVTVSS | high polyreactivity
QVQLVESRGGLVQAGGSLRLSCAASGRTFSNAMGWYRQAPGNERELVADISSGGSTNYADSVKGRFTISRDNAKNTVYLQMNSLKPEDTAVYYCAAVSGSRYGYSDDYWGQGTQVTVSS | low polyreactivity
QVQLVESRGGLVQAGGSLRLSCAASGRTFWYKAMGWYRQAPGKERELVAAISKSAAITYYADSVKGRFTISRDNAKNTVYLQMNSLKPEDTAVYYCNAGVRAVNRKYDYWGQGTQVTVSS | high polyreactivity
QVQLVESRGGLVQAGGSLRLSCAASGSIFLYYARGRSRQSPGKERELVAAIRRGGNTNYADSVKGRFTISRDNAKNTVYLQLNSLKPEDTAVYYCAAAQYSRYSRVPNYYAGTYYYWGQGTQVTVSS | low polyreactivity
QVQLVESRGGLVQAGGSLRLSCAASGSIFPFYAKGWYRQAPGKEREFVASISSGGSTNYADSVKGRFTISRDNAKNTVYLQMNSLKPEDTAVYYCNADVPYRWDTWFQVVYPESYDYWGQGTQVTVSS | low polyreactivity
QVQLVESRGGLVQAGGSLRLSCAASGSIFRSNGMGWYRQPPGTERELVAAIRTSGGSTNYADSVKGRFTISRDNAKNTVSLQMNSLKPEDTAVYYCNTRDRGLGMMEYWGQGTQVTVSS | low polyreactivity
QVQLVESRGGLVQAGGSLRLSCAASGSIFWLYAMGLYRQAPGKERELVAAIDSGDSTKYADSVKGRFTISRDNAKNTVYLQMNSLKREDTAVYYCNASRRYHVLAPYDYWGQGTQVTVSS | low polyreactivity
QVQLVESRGGLVQAGGSLRLSCAASGSIFYDNAMGWYRQAPWKEREFVAAISLRTGRTYYADSVKGRFTISRDNAKNTVYLQMNSLKPEDTAVFYCAARGYYGPKYYYWGQGTQVTVSS | high polyreactivity
QVQLVESRGGLVQAGGSLRLSCAASGSTFRRYAMGWYRQAPGKERELVAAITTRGGSTYYADSVKGRFTISRDNAKNTVYLQMNSLKPEDTAVYYCARDYSTYLRTAGDYWGQGTQVTVSS | low polyreactivity
QVQLVESRGGLVQAGGSLRLSCAASGSTFYLNVMGWYIQAPGKERELVAAITYRGGRTSYADSVKGRFTISRDNAKNTVYLQMISLKPEDTAVYYCATPKYYGYYYWGHGTQVTVSS | high polyreactivity
QVQLVESRGGLVQAGGSLRLSCAASGSTFYRYAMAWYRQAPGKERELVARINTGGSTSYADSVKGRFTISRDNAKNTVYLQMNILKPEDTAVYYCAASSRYAVFGRYYYCGQGTQVTVSS | high polyreactivity

Sequence | polyreactivity (PSR sort gate)
QVQLVESRGGLVQAGGSLRLSCAASGYAMGWYRQAPGKERELVAAITSGGSTNYADSVKGRFTISRDNAKNTVYLQMNSLKPVDTAVYYCAAAYSLYGHRYDYWGQGTQVTVSS | high polyreactivity
QVQLVESRGGLVQAGGSLRLSCAASGYIFGYTVMGWYRQAPGTERELVATITRGGDTNYADSVKGGFTISRDNAKNTVYLQMNSLKPEDSSVYYCAAEPVAYYGSSYGYWGQGTQVTVSS | low polyreactivity
QVQLVESRGGLVQAGGSLRLSCAASRSIFNINTMGWYRQAPGKERELVAAISYSGGSTYYADSVKGRFTISRDNAKNTVYLQKNSLKREDTAVYYCNVSPTTSGDGGGYDSWGQGTKVTVSS | low polyreactivity
QVQLVESRGGLVQAGGSLRLSCAASVSIVGIYVMGRYRQAPGKERELVAGISTRGGSTYYADSVKGRFTIARDNAKNTVYLQMNSLKPEDTAVYYCAVRAWDPYTGKSDYWGQGTQVTVSS | low polyreactivity
QVQLVESRGGLVQAGGSLRLSCPASGYIFYRNAMGWYRQEPGKERELVAAITYTGGRTYYPDSVKGRFTISRDNAKNTVYLQMNSLNPEDTAVYYCNADGRVFVVRPYYDYEYWGQGTQVTVSS | low polyreactivity
QVQLVESRGGLVQAGGSLRLTCAASGFTFGFYGMGWYRPAPGKERELVARITWRSGSTYYADSVKGRFTISRDNAKNSVYLKLNSLKPEDTAVYSCAADGFSYYVIRFDYWGQGTQVTVSS | low polyreactivity
QVQLVESRGGLVQAGGSLSLSCAASGRIFYIYDMGWYRQAPGKERELVAAISTSGGSTFYADSVKGRFTISRDNAKNTVYLQMNSLKPEDTAVYYCAARFRYYGSEYDYWGQGTQVSVSS | low polyreactivity
QVQLVESRGGLVQARGSLRLSSAASGRIFSDYAMGCYRQAPGKERDLVATISGGITNYADSVKGRFTISRDNANNTVYLQMNSLKPEDTAVYYCATVDGAYQYTYDYWGEGTQVTVSS | low polyreactivity
QVQLVESRGGLVQEGGSLRLSCAASGRIFSVYAMGSYRQEPGKERELVASISSGGSTYYADSVMWRFTISRDNAKNTVYLQRTSQKAEDTAVYYCAAGYWTTFRSIYDYWGQGTQVTVSS | low polyreactivity
QVQLVESRGRLVQAGGTLRLSCAASGNITSVYAMGWYRQAPGNERELVAAISGSGGSTYYADSVKGRFTISRDNAMNTVYLQMNSLKPEDTAVYYCAKGFQYQGNSYGYWGQGSQVTVSS | low polyreactivity
QVQLVESRGVLVQAGGSLRLSCAASGYIFAPYAMGWYRPAPGKERELVSAISWRGGSTYYADSVKGRFTISRDNAKITVYLQMNSLKPVDTAVYFCAAQGYGSGLSYYRFDFWGLGTQVTVSS | high polyreactivity
QVQLVESRRGLVPAGGSLRLSCARCGITVPAYAMGWYRQAPGKERELVASISRRGGSTYYADSVKGRFTISRDNAKNTVYLQINSLKPVDTAVYYCNADIKQRSDRYDYWGQGTQVTVSS | high polyreactivity
QVQLVESRRGLVQAGGSLRLSCAASGFTFYIYAMGWYRQAPGKERELVAAIIFRGGSTYYADSVKGRFTISRDNAKNTVYLQMNSLKREDTAVYYCAAVPRTYSGYYYWGHGTQVTVSS | high polyreactivity
QVQLVESSGGLVQAGGSLRLSCAASGLTFKRYAMGWYRQAPGKERELVAAINSGGSTNYADSVKGRFTISRDNAKNTVYLQMNSLKPEDTAVYDCAASTSRYYWYALRDYWGQGTQVTVSS | high polyreactivity
QVQLVESSGGLVQAGVSLRLSFAASGRIILNYPIGLYRKAPGKERELVAAITSDGSRSYADSVKGRFTISRDNAKNSVYLQMKSLKPEDTAVYYCANDFFEHSRVSHTYSSSKYDYGGQGTQVTVSS | low polyreactivity
QVQLVESVGGFVQAGGSLRLSCAASGRTFGRYAMGWYRQAPGKEWELVAAITRSGSSTYYADSVKGRFTISRDNAKNTVYLQMNSMKPEDTAVYYCAALYGPFYSTGEYWGQGTQVTVSS | high polyreactivity
QVQLVESVGGLDQAGGSLRFICASSAHTISSYAMGWYRQAPGKERELVAAISVSATRTYYADSVKGRFTISRDNAKNTVYLQMSSLNPEDPAVYYFAARPVQFTYGYWGQGTQVTVSS | high polyreactivity
QVQLVESVGGLDQAGGSLRLSCAASGFTFDINTMGWYRQEPGKERELVAAITYSGGSTYYADSVKGRFTISRDNAKNTVYLQMNSLKPEDTAVYYCATTWYFVASWYVAIYDYWGQGTQVTVSS | low polyreactivity
QVQLVESVGGLDQAGGSLRLSCAASGRIIAWYPMGWYRQSPGKERELVAAISWNGGRTYYADSVKGRFTISRDNAKNTVYLQINSLKPEDTAVYYCAAGKTPQKYGGFNSWGQGTQVTVSS | high polyreactivity
QVQLVESVGGLDQAGGTLRLSCAASGSTFKYNGMGWYRQAPGKERELVAAISWRAGSTYADSVKGRFTISRDNAKNTVYLLMYSLKPEDTEVYYCAARLKYWGDYYYWGQGTQVTVSS | low polyreactivity
QVQLVESVGGLDQAGVSLRLSSAASGSTFGSYVMGWYRQSPGKERELVASISDGGITNYADSVKGRFTISRDNAKNTVYLQMNSLNPEDTAVYYCAAATRPFSDYTTEGYYYWGQGTQVTVSS | low polyreactivity
